Data reported in the nanobody polyreactivity screen of Harvey et al. (2022).

Assay: yeast display, Sf9 membrane polyspecificity reagent, FACS + sequencing; frameworks hold sequencing errors
How it was run: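 Synthetic nanobody libraries on Saccharomyces cerevisiae BJ5465 were galactose-induced for 36–48 hours, stained 1 hour at 4 °C with 10% biotinylated, detergent-solubilized Sf9 membrane reagent and enriched on streptavidin microbeads. FACS then separated cells into low and high (top ~1%) gates by anti-HA (expression) and streptavidin (reagent binding) fluorescence. Genes were colony-PCR amplified, MiSeq 2 × 250 sequenced and CDR-length filtered. A clone's polyreactivity label is that of its gate of origin.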

For “QVQLVESGGGLVQAGGSLRLICAASGSTFYTYAMGWYRQAPGKEREFVAAIRWRGGSTYYADSVKGRFTISRDNSKNTVFLQMNSLKPEDTAVYYCAAVSPGTVTNGKSRDYWGQGTQVTVSS”, the “polyreactivity (PSR sort gate)” value was “high polyreactivity”.

With “QVQLVESGGGLVQAGGSLRISCAASGSTFYRNAMGWYRQAPGKEREFVAAISFRGGGTYADSVKGRFTISRDNAKNTVYLQMNSLKPEDTAVYYCAADHLSYRRRYEYWGQGTQVTVSS” the “polyreactivity (PSR sort gate)” value was “low polyreactivity”.

In the case of “QVQLVESGRGLVQAGGSLRLSCAASGRTFYYYAMGWYRQAPGKERELVAAISRSGTRTYYADSVKGRFTISRDNAKNTVYLQMNSLKPEDTAVYYCAAVGAAGQDNYWGQGTQVTVSS”, the “polyreactivity (PSR sort gate)” value was “high polyreactivity”.

With “QVQLVESGGGLVQAGGSLRLSCAASGRTFGRYSMGWYRQAPGKERELVAAISYSTDSTYYADSVKGRFTISRDNAKNTVYLQMNSLKPEDTAVYYCAALGYHRYRNYDYWGQGTQVTVSS” the “polyreactivity (PSR sort gate)” value was “low polyreactivity”.

In the case of “QVQLVESGGGLVQAGGSLRLSCAASGSIFERYAMGWYRQAPGKERELVATISKSGDSTYYADSVKGRFTISRDNAKNTVYLQMNSQKPEDTAVYYCAADGWSETSDATFYYWGQGTQVTVSS”, the “polyreactivity (PSR sort gate)” value was “low polyreactivity”.

With “QVQLVESGGGLVQAGGSLRLRCAASGSIFYRNPMGWYRQAPGKESELVAAITSRGGRTYYADSVKGRFTISRDNAKNTVYLQMNSLKPEDTAVYYCNKRDVYSTSDYDYWGQGTQVTVSS” the “polyreactivity (PSR sort gate)” value was “high polyreactivity”.

With “QVQLVESGGGLVQAGGSLRLSCAASGSTFDSNAMGWYRQAPGKERELVAAIRFSGGSTNYADSVKGRFTISRDNAKNTVYLQMNSLKPEDTAVYYCAARYPNLRRRWYYYWGQGTQVTVSS” the “polyreactivity (PSR sort gate)” value was “high polyreactivity”.

For “QVQLVESGGGLVQAGGSLRLSCAASGFIFWRYAMGWYRQAPGKERELVASITSTGGSTYYADSVKGRFTISRDNAKNTVYLQMNSLKPEDTAVYYCAADTFVWADWSWHYYWGQGTQVTVSS”, the “polyreactivity (PSR sort gate)” value was “high polyreactivity”.

For “QVKLVESGGGLVQEGASLRLSCAASGRIFGNYAMGWYRQAPGKERELVAAIDLSGDSTYYADSVKGRFTISRDNAKNTVYLQMNSLKPEDTAVYYCAATDWFSEYYWGQGTQVTVSS”, the “polyreactivity (PSR sort gate)” value was “low polyreactivity”.

With “QVQLVESGGGLVQAGGSLRLSCAASGSTFYFNAMGWYRQAPGKARELVAAIDWSGGSTYYADSVKGRFTISRDNAKNTVYLQMNSLKPEDTAVYYCAAPYHYYGNTVGYADYDYWGQGTQVTVSS” the “polyreactivity (PSR sort gate)” value was “low polyreactivity”.

For “QVQHVESGGGLVQAGGSLRLSCAASGRTFPPYDMGWYRQAPGKERELVAAITSDGSTSYADSVKGRFTISRDNAKNTVYLQMNSLKPEDTAVYYCAAYRWYSAARMGYWGQGTQVTVSS”, the “polyreactivity (PSR sort gate)” value was “high polyreactivity”.

For “QVQLVESGGGLVQAGGSLRLSCAASGMILGVNVMGWYRQAPGKERELVAAISGGGRTYYADSVKGRFTISRDNAKNTVYLLMNSLKPEDTAVYYCAARVYSLGYGGDYWGQGTHVTVSS”, the “polyreactivity (PSR sort gate)” value was “high polyreactivity”.

In the case of “QVQLVESGGGLVQAGGSLRLSCAASGRIFRRYAMGWYRQAPGKERELVAALTRSGGSTYYADSVKGRFTISRDNAKNTVYLQMNSLKPEDTAVYYCYAPSSLGTDYDYWGQGTQVTVSS”, the “polyreactivity (PSR sort gate)” value was “high polyreactivity”.

In the case of “QVQLVESGGGLVQAGGSLRLSCAASGFIFGTYAMGWYRQAPGKERELVAAISRSGGSTSYADSVKGRFTISRDNAKNTVYLQMNSLKPEDTAVYYCNKRLLRFPYWGYDYWGQGTQVTVSS”, the “polyreactivity (PSR sort gate)” value was “high polyreactivity”.

With “QVQLVESGGGLVQAGGSLRLSCAASGRIFGDYAMGWYRQAPGKEMELVAAITSAGSTHYADSVKGRFTISRDNAKNTVYLQMNILKPDDTAVYYCAADGIARAYVLFDAYDFLYDYWGQGTHVTVSS” the “polyreactivity (PSR sort gate)” value was “low polyreactivity”.

In the case of “QVQRVESGGGLVQAGGSLRLSCAASGSNFDKNPMGWYRQAPGKEREVVAAISRSGGSTNYADSVKGRFTISRDNAKTTDFLLMYSVKPEDTAVYYFAAQSRYWTYDSWGQGTQVNVSS”, the “polyreactivity (PSR sort gate)” value was “high polyreactivity”.

For “QVQLVESGGGLVQAGGSLRFSCAASGRTFGINAMGWYRQAPGKERELVAVITFGDGGTYYADSVKGRFTISRDNAKNTVYLQMNSLNPEDTAVYYCSTDYQSTSVWGGHFVINPYDYWGQGTQVTVSS”, the “polyreactivity (PSR sort gate)” value was “low polyreactivity”.

In the case of “QVQLVESGGGLVQAGGSLRLSSAASGFIFIINAMGWYRQAPGKEREFVAAITGSGGSTYYADSVKGRFTISRDNAKNTVYLQMNSLKPEDTAVYYCANVGPYYSGKVYGRTYYSRYGYWGQGTQVTVSS”, the “polyreactivity (PSR sort gate)” value was “low polyreactivity”.

With “QVQLVESGGGLVQAGGSLRLSCAASGSIFYHYAMGWYRQAPGKERELVATINWSGGSTYYADSVKGRFTISRDNAKNTVYLQMNSLKPEDTAVYYCYSDSAIGLYVSSTPYGYDYWGQGTQVTVSS” the “polyreactivity (PSR sort gate)” value was “low polyreactivity”.

For “QVQLVESGGGLVQAGGSLRLSCAASGRIYDYNTMGWYRKAPGKERELVAAITGGTGSTYYADSVKGRFTISRDNAKNTVYLQMNSLKPEDTAVYYCAAGFHKRVTPEILYDYWGQGTQVTVSS”, the “polyreactivity (PSR sort gate)” value was “low polyreactivity”.

In the case of “QVQLVESGGGLVQAGGSLRLSCAASGRIFGYYAMGWYRQAPGQERELVAAITRNGGSTYYADSVKGRFTISRDNAKNTVYLQMTSLKPEDTAVYYCAATKGGGRGYWGQGTQVTVSS”, the “polyreactivity (PSR sort gate)” value was “high polyreactivity”.

With “QLQLVESGGGLVQAGGSLRLSCAASGSTFVYYAMGWYRPAPGKERELVAGITSSGGSTYYADSVKGRFTISRDNAKNTVYLQMNSLKPEDTAVYYCAAYVWVQQGRYYYWGQGTQVTVSS” the “polyreactivity (PSR sort gate)” value was “low polyreactivity”.

For “QVQLVESGGGLVQAGGSLRLSCSASGRTFATNAMGWYRQAPGKERELVAAISGSGGRTYYADSVKGRFTISRDIAKNTVYLQMNSLKPEDTAVYYCAAQKVPYRATNYYYWGQGTQVTVSS”, the “polyreactivity (PSR sort gate)” value was “high polyreactivity”.

In the case of “QVQLVESGGGLVQAGGSLRLSCAASGRTFPTNAMGWYRQAPGKERELVARISTRGGSTYYADSVKGRFTISRDNAKNTVYLQMNSLKPEDTAVYYCARRYAVSNQASYYWGQGTQVTVSS”, the “polyreactivity (PSR sort gate)” value was “high polyreactivity”.

With “QVQLVESGAGLVQAGGSLRLSCAASGSIFNSYAMGWYRQPPGKERELVAAISKAGGSTYYADSVKGRFTISRDNAKNTVYLQMNSQKPEDTAVYYCAARYGRCYDSAYNYWGQGTQVTVSS” the “polyreactivity (PSR sort gate)” value was “high polyreactivity”.

For “QVQLVESGGRLVQAGGSLRLSCAASGNILRFNALGWYRQAPGKEWQLVAAISRSGGTTYFADSVKGRFTISRDTAKNTVYLQMNSLKPEDTAVYYCAARSRYGESPGYYWGQGTQVTVSS”, the “polyreactivity (PSR sort gate)” value was “high polyreactivity”.

With “QVQLVESGGGLVQAGGSLRLSCAASGSTLTRNTMGWYRQAPGKERELVATITRSGGSTYYADSVKGRFTISRDNAKNTVYLQMNSLKPEDTAVYYCAKRGRLRNYDYWGQGTQVTVSS” the “polyreactivity (PSR sort gate)” value was “high polyreactivity”.

For “QVQQQESGGGLVQVGGSQRLSCAASGNIFYNYAMGWYRHAQGKEREFDATINHGTSINYADSVKGRFTISRDNAKNTVYLQMNSLKPEDTAVYYCAADLSWTDNLFYWGQGTQVTVSS”, the “polyreactivity (PSR sort gate)” value was “low polyreactivity”.

With “QVQLVESGGGLVQAGGSLRLSCAASGFSFVYYAMGWYRQAPGKERELVATISGNGGRTYYADSVKGRFTISRDNAKNTVYLQMNSLKPEDTAVYYCAALLYIRSVGYDYWGQGTQVTVSS” the “polyreactivity (PSR sort gate)” value was “low polyreactivity”.

For “QVQLVESGGGLVQAGGRLRLSCAASGFTFPWYTMGWYRQAPGKERELVAAISRSGGSTYYADSVKGRFTISRDNAKNTVYLQLNSLKPEDTAVYYCAAEQTRWPDITRYDYWGQGTQVTVSS”, the “polyreactivity (PSR sort gate)” value was “high polyreactivity”.

With “QVQLVESGGGLVQAGGSLRLSCAASGSIFGGYAMGWYRQAPGKERELVADISGSGGGTYYADSVKGRFTISRDNAKNTVYLQMNSLKPEDTAVYYCARRPRTYKHWFGYWGQGTQVTVSS” the “polyreactivity (PSR sort gate)” value was “low polyreactivity”.

For “QVQLVESGGGLVQAGGSLRLSCAASGITFLDYAMGWYRQAPGQERELVAAISKRGGSTYYADSVKGRFTISRDKAKNTVYLQMNSLKPEDTAVYYCAAYYHSVRNDYFYYWGQGTQVTVSS”, the “polyreactivity (PSR sort gate)” value was “high polyreactivity”.

With “QVQLVESGGGLVQAGCSLRLSCAASGRTLGWNAMGWYRQAPGKERELVAAISSSTSTYYADSVKGRFTISRDNAKNTVYLQMNSLKPEDTAVYYCAALYWGQGTQVTVSS” the “polyreactivity (PSR sort gate)” value was “low polyreactivity”.

In the case of “QVQLVESGGGLVQAGGSLRLSCAASGFNFRFYAMGWYRQAPGKERELVAVITWSGGRTYYADSVKGRFTISRDNAKNTVYLQMNSLKPEDTAVYYCAAKRGKTYQRFDYWGQGTQVTVSS”, the “polyreactivity (PSR sort gate)” value was “high polyreactivity”.

With “QVQLVESGGGLVQAGGSLRLSCAASGSIFDSNAMGWYRQAPGKERELVATISSVGSTNYADSVKGRFTISRDNAKNTVYLQMNSLKPEDTAVYYCARVVDAQGYYSAASGGYYWGQGTQVTVSS” the “polyreactivity (PSR sort gate)” value was “low polyreactivity”.

With “QVQLVESGGGLVQAGGSLRLSCAASGRILNINAMGWYRQAPGKERELVAAITWRGGRTFYADSVKGRFTISRDNAKNTVYLQMNSLKPEDTAVYYCAKGYRGYSYGYWGQGTQVTVSS” the “polyreactivity (PSR sort gate)” value was “high polyreactivity”.

With “QVQLVESGGGLVQAGGSLRLSCAASGSIFKRNPMGRYRQAPGKERELVAGISRRAGSTYYADYVKGRFTISRDNAKNTDYLQMNSLKPEDTAVYYCATYSFRGTYRYDYWGQGTQVTVSS” the “polyreactivity (PSR sort gate)” value was “high polyreactivity”.

In the case of “QVQLGESGGGLVQAGGSLRLSCAASGSTIRRYTMGWYRQAPGKERELDAAITGSGGSTYYADSVKGRFTISRDNAKNTVYLQMNSLKPEDPAVYYCAAPPWRRIVGGIYDYWGQGTQVTVSS”, the “polyreactivity (PSR sort gate)” value was “high polyreactivity”.

With “QVQLVESGGGLVQAGGSLRLSCAASGSIFAKNAMGWYRQAPGKERELVAAISRGGNSYYADSVKGRFTISRDNAKNPVYFPMNSLTPEDTAVYYCAADYYWYVWEYPTYWYEYWGQGTQVTVSS” the “polyreactivity (PSR sort gate)” value was “high polyreactivity”.

For “QVQLVESGGGLVQAGGSLRLSCAASGRIFPGKAMGWYRQAPGKEREFVASINWSRGSTFYADSVKGRFTISRDNAKNTVYLQMNRLIPEDTAVYYCSARTFGYYRSRSYNYWGQGTQVTVSS”, the “polyreactivity (PSR sort gate)” value was “high polyreactivity”.

With “QVQLVESGGGLVQAGGSLSLSCAASGFTFYGNAIGGNRQAPGKERELVASISTYYADSVKGRFTISRDNAKNTVYLQMNSLKPEDTAVYYCAATHYDRTYYVIYDYWGQGTQVTVSS” the “polyreactivity (PSR sort gate)” value was “low polyreactivity”.

With “QVQLVESGGGLVQAGGSIRLSCAASGITFYVYTLGWYRQAAGKERELVAAINGSGGSTNYADSVKGRFTITRDNEKNTVYLQMNSLKREDTAVYYCNAPVVYFWPLNFDYWGQGTQVTVSS” the “polyreactivity (PSR sort gate)” value was “low polyreactivity”.

With “QFQLVESGGGLVQAGGSLRLSCAASGSTFGVNAMGWYRQAPGKERELVAAISSSGSSTYADSVKGRFTISRDNAKNTVYLQMNSLKPEDTAVYYCNKTTLLTVEYDYWGQGTQVTVSS” the “polyreactivity (PSR sort gate)” value was “low polyreactivity”.
